From the Immune Epitope Database (IEDB) come the findings set out here.

One experiment deals with HLA-B*15:01. Nature of the experiment: IEDB peptide-MHC binding, purified MHC/competitive/fluorescence; filed as Kd, often an IC50 or EC50 that approximates it; ≥ and ≤ were set here for values at or beyond the usual limits of such assays. To be noted: source organism: Salmonella enterica subsp. enterica serovar Typhi.
In a further experiment the target is HLA-B*40:01. The experiment is described as above. To be noted: source organism: Salmonella enterica subsp. enterica serovar Typhi.
The target in another experiment is HLA-A*69:01. Described as above. Particulars: source organism: Salmonella enterica subsp. enterica serovar Typhi.
Another experiment concerns the target HLA-A*02:03. The experiment is described as above. Particulars: source organism: Salmonella enterica subsp. enterica serovar Typhi.
A further experiment has as its target HLA-A*03:19. Described as above. To be noted: source organism: Salmonella enterica subsp. enterica serovar Typhi.
In the next experiment the target is HLA-B*48:01. The description is as above. To be noted: source organism: Salmonella enterica subsp. enterica serovar Typhi.
For another experiment, the target named is HLA-B*15:09. The description is as above. Particulars: source organism: Salmonella enterica subsp. enterica serovar Typhi.
The next experiment has as its target HLA-A*01:01. The experiment is described as above. Particulars: source organism: Salmonella enterica subsp. enterica serovar Typhi.
The next experiment deals with HLA-C*15:02. The experiment can be described thus: IEDB peptide-MHC binding, purified MHC/direct/fluorescence; filed as Kd, often an IC50 or EC50 that approximates it; ≥ and ≤ were set here for values at or beyond the usual limits of such assays. Particulars: source organism: Salmonella enterica subsp. enterica serovar Typhi str. CT18.

Take SVIDHIHYM: the equilibrium dissociation constant (Kd) with HLA-B*15:01 was 145 nM; with HLA-B*40:01, ≥ 20000 nM; in the experiment with HLA-A*69:01, 0.6 nM; with HLA-A*02:03, 3.1 nM; with HLA-A*03:19 it was 982 nM; in the experiment with HLA-B*48:01 it was ≥ 20000 nM. The Kd was ≥ 20000 nM with HLA-B*15:09, ≥ 20000 nM with HLA-A*01:01 and 95 nM with HLA-C*15:02.
